Test results reported in paper PMC4739419, “Mutations in the nucleotide binding and hydrolysis domains of Helicobacter pylori MutS2 lead to altered biochemical activities and inactivation of its in vivo function” (BMC Microbiology, 2016).
Residue numbers refer to the chain shown, from its start. In names and notes the source's numbering stands. Where two headings read alike, the source gives them in different places.

B1: HpMutS2-E413A (enzyme)
chain: MSDAPKRSLNPTLMMNNNNTPPKPLEESLDLKEFIALFKTFFAKERDTIALENDLKQTFTYLNEVDAIGLPTPKSVKESDLIIIKLTKLGTLHLDEIFEIVKRLHYIVVLQNAFKTFTHLKFHERLNAIVLPPFFNDLIALFDDEGKIKQGANATLDALNESLNRLKKESVKIIHHYARSKELAPYLVDTQSHLKHGYECLLLKSGFSGAIKGVVLERSANGYFYLLPESAQKIAQKIAQIGNEIDCCIVEMCQTLSHSLQKHLLFLKFLFKEFDFLDSLQARLNFAKAYNLEFVMPSFTQKKMILENFSHPILKEPKPLNLKFEKSMLAVTGVNAGGKTMLLKSLLSAAFLSKHLIPMKINAHHSIIPYFKEIHAIINDPQNSANNISTFAGRMKQFSALLSKENMLLGVDAIELGTDADEASSLYKTLLEKLLKQNNQIIITTHHKRLSVLMAENKEVELLAALYDEEKERPTYTFLKGVIGKSYAFETALRYGVPHFLIEKAKTFYGEDKEKLNVLIENSSALERELKQKNEHLENALKEQEYLKNAWLLEMEKQKEIFHNKKLELEKSYQQALNILKSEVASKDTSSMHKEIHKASEILSKHKTNQEIPQIITNFQANEKARYKNESVLIVQILDKGYYWIETELGMRLKAHGSLLKKIQKPPKNKFKPPKTTIPKPKEASLRLDLRGQRSEEALDLLDAFLNDALLGGFEEVLICHGKGSGILEKFVKEFLKNHPKVVSFSDAPINLGGSGVKIVKL
notes: also called Walker-B mutant
B2: HpMutS2: Helicobacter pylori MutS2 (1-762), C-terminally His6-tagged wild-type protein, nuclease and ABC ATPase (protein)
chain: B1 chain with A413E
modifications: left off: His6, C-terminal, state not stated
notes: Helicobacter pylori MutS2 (1-762), C-terminally His6-tagged wild-type protein, nuclease and ABC ATPase
B3: HpMutS2-G338R (protein)
chain: B1 chain with G338R, A413E

Experiments:
Holliday junction [1] = assay: Nuclease assay (urea-PAGE); type: biochemical; conditions: for DNA cleavage rate: No nucleotide, DNA 1 nM, protein 150 nM, 37 °C
Protocol: (§1) Fig. 6 Effect of nucleotide cofactors on nuclease activity of HpMutS2 and mutants. Plots showing time dependent depletion of substrate DNA (a, b, c) Single-stranded DNA and d, e, f Holliday junction. DNA substrates (1 nM) were incubated with HpMutS2 and mutants (150 nM) at 37 °C. Reactions aliquots were removed at 0, 15, 30, 60, 90, and 120 min. The reactions were stopped using (50 mM EDTA + formamide dye) and the products were electrophoresed on urea-PAGE (15 %). The percentage reduction in substrate was calculated by considering DNA without protein as 100 %. Error bars represent standard deviation from two or more different experiments. (g, panel 1–6) Time dependent cleavage of Holliday junction by HpMutS2 and mutants. Reactions were performed as described in (A-F). Reactions aliquots were removed at 0, 15, 30, 60, 90, and 120 min
(§2) Radiolabeled DNA substrates were incubated with HpMutS2 and mutants in buffer D (50 mM Tris pH 8.0, 50 mM NaCl, 1 mM DTT, and 5 mM MgCl2). ATP, ADP, and ATPγS (1 mM each) were added separately to the reaction mixtures. 20 μl reaction aliquots were reomoved at 0, 15, 30, 60, 90, and 120 min. Reactions were stopped by adding EDTA (50 mM) + formammide dye (98 % formamide, 0.1 % bromophenol blue and 0.1 % xylene cyanol). The DNA substrates were denatured at 95 °C for 15 min and the reaction mixtures were separated on denaturing polyacrylamide gel (15 %) containing urea (7 M). The results were visualized and analysed as described earlier. DNA cleavage rates were estimated by dividing the total product formed (pM) in linear range of enzymatic activity by corresponding incubation time (min).

Single-stranded DNA [2] = assay: Nuclease assay (urea-PAGE); type: biochemical; conditions: for DNA cleavage rate: No nucleotide, DNA 1 nM, protein 150 nM, 37 °C
Protocol: as §1, §2

Holliday junction [3] = assay: Electrophoretic mobility shift assay (EMSA); type: binding; conditions: for Kd: read-out: DNA binding affinity (dissociation constant); for fold reduced affinity compared to wild-type: no nucleotide
Protocol: (§3) Fig. 5 Effect of nucleotide cofactors on DNA binding activity of HpMutS2 and mutants. Electrophoretic mobility shift assays were performed by incubating radiolabeled DNA substrates (0.16 nM) with increasing concentrations of proteins as described in Methods section. Nucleotides (1 mM) were added separately to the reaction mixtures. After incubation of 30 min on ice, the reaction mixtures were electrophoresed on native PAGE (8 %) at 4 °C. (a, panel 1–6) Interaction of HpMutS2 and mutants with single-stranded DNA. b-g Plots of percentage of bound DNA substrate (ssDNA and Holliday junction) versus protein concentration. The percentage binding was calculated by measuring the depletion in substrate DNA considering DNA without protein as 100 %. Error bars represent standard deviation from two or more different experiments. Schematic representation of DNA substrates used are shown at the left side of figures
(§4) Radiolabeled DNA substrates (0.16 nM) were incubated with increasing concentrations of HpMutS2 and mutants in buffer A with 1X BSA (0.1 μg/μl). ATP, ADP, and ATPγS (1 mM each) were added separately to the reaction mixture. The NaCl concentration was maintained to 110 mM by adding storage buffer C to the reaction mixture. After incubation of 30 min on ice, the reaction mixtures were electrophoresed on native PAGE (8 %) at 4 °C. The gels were transferred on to Whatman 3 mm paper and dried under vacuum at 80 °C for 45 min. The gels were visualized by phosphorimaging and quantified using Image Gauge (Version 3.0). The dissociation constants were determined by non-linear regression analysis and calculated by plotting the percentage of bound DNA versus concentration of protein using “One site - Specific binding with Hill slope” equation of the GraphPad Prism 5 software.

Single-stranded DNA [4] = assay: Electrophoretic mobility shift assay (EMSA); type: binding; conditions: for fold reduced affinity compared to wild-type: no nucleotide; for Kd: read-out: DNA binding affinity (dissociation constant)
Protocol: as §3, §4

[5] = Thermal denaturation monitored by CD at 222 nm; type: physicochemical; conditions: for temperature of 50 % unfolding: 25–80 °C; for thermal stability compared to the other variants: higher temperatures
Protocol: Fig. 4 Nucleotide and mutation induced conformational changes in HpMutS2. a Limited proteolysis. Proteins (4 μM) either free or pre-incubated with nucleotides (1 mM) were incubated with chymotrypsin (1.25 ng) for 30 min at 37 °C. All proteolysis reactions were performed in 1X buffer A lacking magnesium. Reactions were stopped by adding a protease inhibitor cocktail and the products were separated on SDS-PAGE (10 %). Lane M: Molecular weight marker. b Thermal stability profiles of wild-type HpMutS2, HpMutS2-G338R, and HpMutS2-E413A. Proteins (1 μM) dialyzed in 50 mM Tris-Cl and 100 mM NaCl were subjected to thermal denaturation and spectra were recorded at 222 nm using Jasco-815 spectropolarimeter
Freshly prepared proteins were dialyzed twice in buffer B for 4–6 h with at least two changes of the buffer. Far-UV CD spectra of proteins (1 μM) were obtained using a Jasco-815 spectropolarimeter equipped with a Peltier stage (Japan Spectroscopic Co., Japan) at 25 °C. The spectra were recorded between 200–300 nm with 20 mdeg sensitivity at a scan speed of 50 nm using 2 mm path length cuvette with a bandwidth of 2 nm. Control titrations were performed and all the CD spectra were corrected by subtracting control spectra. Thermal denaturation of the proteins was monitored at single wavelength (222 nm) by increasing temperature from 25 °C-80 °C. The percentage of unfolded protein was calculated by considering the protein at 25 °C as 100 % folded.

Row | Molecule | DNA cleavage rate (Holliday junction [1]) | DNA cleavage rate (Single-stranded DNA [2]) | Kd (Holliday junction [3]; + ADP 1 mM) | Kd (Holliday junction [3]; + ATP 1 mM) | Kd (Holliday junction [3]; No nucleotide) | fold reduced affinity compared to wild-type (Holliday junction [3]) | fold reduced affinity compared to wild-type (Single-stranded DNA [4]) | temperature of 50 % unfolding [5] | thermal stability compared to the other variants [5] | Kd (Single-stranded DNA [4]; + ADP 1 mM) | Kd (Single-stranded DNA [4]; No nucleotide) | other results
1 | B1 | 4.92 ± 1.25 pM/min | 6.50 ± 0.55 pM/min | 46.4 ± 5.6 nM | 31.7 ± 3.34 nM | 30.8 ± 1.97 nM | ~ 2 fold | > 4 fold | ~ 50 °C | more unstable |  |  | fold reduced nuclease activity compared to wild-type (Holliday junction [1]; no nucleotide): ~ 4 fold; fold reduced nuclease activity compared to wild-type (Single-stranded DNA [2]; no nucleotide): ~ 4 fold
2 | B2 | 26.49 ± 3.95 pM/min | 24.82 ± 1.15 pM/min | 22.6 ± 1.39 nM | 20.8 ± 2.95 nM | 14.4 ± 0.82 nM |  |  | ~ 50 °C |  | 17.3 ± 2.89 nM | 21.5 ± 2.28 nM | fold reduction of Holliday junction cleavage rate by ADP (Holliday junction [1]; ADP 1 mM vs no nucleotide): ~ 1.5 fold; fold reduction of Holliday junction cleavage activity in presence of ADP compared to ATP (Holliday junction [1]; ADP vs ATP, 1 mM): ~ 2.1 fold; fold stimulation of Holliday junction cleavage rate by ATP (Holliday junction [1]; ATP 1 mM vs no nucleotide): ~ 1.5 fold; fold reduced nuclease activity in presence of ATPγS (Holliday junction [1]; ATPγS 1 mM vs no nucleotide): ~ 1.5 fold; Kd (Holliday junction [3]; + ATPγS 1 mM): 22.5 ± 1.23 nM; Kd (Single-stranded DNA [4]; + ATPγS 1 mM): 11.4 ± 0.19 nM; fold reduced ssDNA binding in presence of ATP (Single-stranded DNA [4]; ATP 1 mM, at lower concentrations of protein): ~ 5 fold
3 | B3 | 41.59 ± 9.53 pM/min | 40.19 ± 8.73 pM/min | 34 ± 5.31 nM | 32 ± 4.34 nM | 21.4 ± 0.93 nM | ~ 1.5 fold | ~ 1.5 fold |  | more stable at up to 80 °C | 23.9 ± 2.91 nM | 32.4 ± 3.32 nM | fold elevated nuclease activity compared to wild-type (Holliday junction [1]; no nucleotide): ~ 1.6 fold; fold elevated nuclease activity compared to wild-type (Single-stranded DNA [2]; no nucleotide): ~ 1.6 fold; Kd (Single-stranded DNA [4]; + ATP 1 mM): 30.7 ± 3.43 nM
